Experimental data as given in the supplement of paper PMC9170038.

Test system: MS2 coat protein
Assay: apparent KD of MS2 coat protein; designed switch direction (-1 OFF switch, 1 ON switch): -1; higher = weaker reporter binding
How it was run: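 Apparent KD, taken as the median over clusters for each design, was obtained by curve-fitting normalised cluster fluorescence. Designed RNA switches had been transcribed on Illumina chips by stalled E. coli RNA polymerase and titrated with SNAP-549-labelled MS2 coat protein, doubling from 0.7 or 1.5 nM to 3 µM.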

[1] = input ligand: microRNA oligo, concentration not stated
[2] = Eterna round: R95, input ligand: FMN 200 uM
[3] = Eterna round: R95, input ligand: microRNA oligo, concentration not stated
[4] = Eterna round: R95, input ligand: none

Sequence	apparent KD of MS2 coat protein (input ligand: FMN 200 uM) [nM]	apparent KD of MS2 coat protein (input ligand: none) [nM]	also measured
CACCGUUACUGAGGAUAUGGUACAUGAGGAUCACCCAUGUAAUAAAUGAGAAUUUCGGAUGUAUUCCAGAAGGCAGAAAUCGGC [Ostricism 63 - Jieux - Exclusion NG 2] (Eterna round: R96, puzzle: Exclusion NG 2)	65.2	60.3	apparent KD of MS2 coat protein [1]: 40.5 nM
CACCGUUAGAGAGGAUAUCGUACAUGAGGAUCACCCAUGUAAUAAAUGAGAAUUUCGGAUGUAUGCGAGAAGGCUCAAAUCGGC [Ostracism 39 - Jieux - Exclusion NG 2] (Eterna round: R96, puzzle: Exclusion NG 2)	42.1	60	apparent KD of MS2 coat protein [1]: 42.5 nM
CACCGUUAGUGAGGAUAUCUUACAUGAGGAUCACCCAUGUAAUAAAUGAGAAUUUCGGAUGUAUGAGAGAAGGCACAAAUCGGC [Ostricism 53 - Jieux - Exclusion NG 2] (Eterna round: R96, puzzle: Exclusion NG 2)	21.2	22.7	apparent KD of MS2 coat protein [1]: 18.5 nM
CACCGUUAUGGAGGAUAUCGUACAUGAGGAUCACCCAUGUAAUAAAUGAGAAUUUCGGAUGUAUGCGAGAAGGCCAAAAUCGGC [Ostracism 43 - Jieux - Exclusion NG 2] (Eterna round: R96, puzzle: Exclusion NG 2)	46.6	43.5	apparent KD of MS2 coat protein [1]: 26.9 nM
CACCUGAAAGCAGGAUAUCUUACAUGAGGAUCACCCAUGUAAUAAAUGAGAAUUUCGAAUGUAAUAGAGAAGGGCUGAAAAGGC [Ostracism 86 - Jieux - Exclusion NG 2] (Eterna round: R96, puzzle: Exclusion NG 2)	47	40.3	apparent KD of MS2 coat protein [1]: 37.7 nM
CACCUGAAGAGAGGAUAUCAUACAUGAGGAUCACCCAUGUAAUAAAUGAGAAUUUCGAAUGUAAUUGAGAAGGCUCGAUAAGGC [Ostricism 92 - Jieux - Exclusion NG 2] (Eterna round: R96, puzzle: Exclusion NG 2)	109	59	apparent KD of MS2 coat protein [1]: 54.9 nM
CACGAACAUGAGGAUCACCCAUGUAAGGAUAUGGCCAACGACUUAAACUAAAGGUUGGCCAGAAGGUGCGGGUG [Eternabot (L2) Solution 61] (Eterna round: R97, puzzle: Exclusion 1)	52.5	286	
CACGGGUAAGGAUAUACAAGUGAGAAAGGUAUGUGCAAAUAACAUGAGGAUCACCCAUGUAGAAGGUACGCCGG [Cearxeen] (puzzle: Exclusion 2)			apparent KD of MS2 coat protein [2]: 27.1 nM; apparent KD of MS2 coat protein [3]: 16.9 nM; apparent KD of MS2 coat protein [4]: 14.9 nM
CACGUGUAAGGAUAUGACAAUGGUAUCUUCGGAUACCAUUGUCAGAAGGUACAUGAGGAUCACCCAUGUAACAC [Ex4-3: 15] (puzzle: Exclusion 4)			apparent KD of MS2 coat protein [3]: 17.2 nM
CACUCACAUGAGGAUCACCCAUGUCAGGAUAUCUCAGUGCAUCCACACGGACGCAUCAAGAGAAGGGACAAAAC [Vinxlusion 1 - Jieux - Exclusion 1] (Eterna round: R97, puzzle: Exclusion 1)	40.2	36.6	
CACUUACAUGAGGAUCACCCAUGUGAGGAUAUCGUGACCAGACGAGAAGUCUAUGUCACGAGAAGGCACGUGGG [Exclusion 1 (Mod 3.1 solution 97 by Eternabot)] (Eterna round: R97, puzzle: Exclusion 1)	20.8	811	
CAGAAUUGAGGAUAUGAUCAAUUUAACAUGAGGAUCACCCAUGUAUGGGAAUGAUUCUGAUCAGAAGGCGAUUCUA [Exclusion 5: 1:b] (puzzle: Exclusion 5)			apparent KD of MS2 coat protein [2]: 289 nM; apparent KD of MS2 coat protein [3]: 408 nM; apparent KD of MS2 coat protein [4]: 79 nM
CAGAGCAGACGGAGAUCCAACAUGAGGAUCACCCAUGUCUCAAAAGCUUUUUGCUUGUCUUAUCCUCCUCUGUUCAC [Esquitian 2] (Eterna round: R97, puzzle: Sensor, turn-off variant 1)	18.3	17.4	
CAGAGCAGAGGAUAUACAUGAGGAUCACCCAUGUGAUCAUGCUACGGGACGUUACAUUGUAGAAGGCUGCUUUC [Eternabot (L2) Solution 58] (Eterna round: R97, puzzle: Exclusion 3)	283	31.1	
CAGCACUCAGGAUAUACAUGAGGAUCACCCAUGUGUGAACAAGUGAGUGAUUUCCCAUGUAGAAGGGAGAGAUU [Exclusion 3 S1] (Eterna round: R97, puzzle: Exclusion 3)	183	98.2	
CAGCGGUGAGGAUAUACGUAGGUACAGAUCUGUGUGUUCCUACAUGAGGAUCACCCAUGUAGAAGGCAUGGCUG [LRO-Excl2-11] (puzzle: Exclusion 2)			apparent KD of MS2 coat protein [3]: 37.1 nM
CAGCGGUGAGGAUAUUCAAGGUGGGACAUGAGGAUCACCCAUGUACAUAGCUGUACGACCGGAGAAGGCGUGGCAU [Eternabot (L1) Solution 67] (Eterna round: R97, puzzle: Exclusion 5)	86.5	76.3	

Sequence	apparent KD of MS2 coat protein (input ligand: FMN 200 uM) [nM]	apparent KD of MS2 coat protein (input ligand: none) [nM]	also measured
CAGCUGAAAGUCAGGAUAUCUAGAGCUUCGGCUCUAGAGAAGGGACAUGAGGAUCACCCAUGUCACUCCAGCUG [BmEx4/3-A1] (Eterna round: R97, puzzle: Brourd's mod of Exclusion 4)	18.9	18.2	
CAGGAAAUAGAGGAUAUAGGAGUCGAUAGACUCCUAGAAGGCUAUACAUGAGGAUCACCCAUGUGUCCUACCUG [Fiskers Ex 6 - 69] (puzzle: Exclusion 6)			apparent KD of MS2 coat protein [3]: 14.6 nM
CAGGAUAGAGGAUAUACAUAGAUACAGAUUCAUGUGGUCCUACAUGAGGAUCACCCAUGUAGAAGGCUAUCCUG [Fiskers Ex 2 - 22] (puzzle: Exclusion 2)			apparent KD of MS2 coat protein [3]: 180 nM
CAGGCUACAAACGCUCGUCACAUGAGGAUCACCCAUGUACGCCUCUAUCGUAAGUCCAGCGUUCGCUGGCAAGGGUA [Eternabot (Original) Solution 19] (Eterna round: R97, puzzle: Sensor, turn-off variant 1)	47.5	56.2	
CAGGGUAGAGGAUAUACGUAGGUACAGAUCUGUGUGUUCCUACAUGAGGAUCACCCAUGUAGAAGGCUAGCCUG [LRO-Excl2-08] (puzzle: Exclusion 2)			apparent KD of MS2 coat protein [3]: 77.9 nM
CAGUACAGAGGAUAUACAUGAGGAUCACCCAUGUGUUUCAGCUAGGAGACUAGCGAAAGUAGAAGGCUGUACUA [salish99_ex3_r4_003] (Eterna round: R97, puzzle: Exclusion 3)	25.7	9.41	
CAGUACUACAAGCUUAGGGACAUGAGGAUCACCCAUGUUCGUCUUAUUGAUCUAGGUACGCUGACGUACCUAGAUCU [JL-sv1-2.12 Brourd mod] (puzzle: Sensor v3, turn-off variant 1)			apparent KD of MS2 coat protein [2]: 15.7 nM; apparent KD of MS2 coat protein [3]: 29.9 nM; apparent KD of MS2 coat protein [4]: 15 nM
CAGUACUACAAGCUUUGGGACAUGAGGAUCACCCAUGUUCGUCUUAUUGAUCUAGGUACGCUGACGUACCUAGAUCU [JL-sv1-2.11 Brourd mod] (puzzle: Sensor v3, turn-off variant 1)			apparent KD of MS2 coat protein [2]: 16.7 nM; apparent KD of MS2 coat protein [3]: 33.1 nM; apparent KD of MS2 coat protein [4]: 15.3 nM
CAGUACUGAGGAUAUACAUGAGGAUCACCCAUGUAUCCAAGCUAGGAAACUAGCAAAUGUAGAAGGCAGUACUG [Ex3: 821] (Eterna round: R96, puzzle: Exclusion 3)			apparent KD of MS2 coat protein [1]: 30.9 nM
CAGUACUGAGGAUAUACAUGAGGAUCACCCAUGUAUCCUAGCUAGGAAACUAGCAAAAGUAGAAGGCAGUACUG [Ex3: 819] (Eterna round: R96, puzzle: Exclusion 3)			apparent KD of MS2 coat protein [1]: 12.4 nM
CAGUACUGAGGAUAUACAUGAGGAUCACCCAUGUCAGAGAUACUAGUGAGGUCGAUUAGUAGAAGGCAGUACUG [Mat X3R4 m30] (Eterna round: R97, puzzle: Exclusion 3)	621	43.5	
CAGUACUGAGGAUAUACAUGAGGAUCACCCAUGUCCUAAAAGUAGGAUACUACUAUUAGUAGAAGGCAGUACUG [Fiskers Ex 3 828 mod 23] (puzzle: Exclusion 3)			apparent KD of MS2 coat protein [3]: 18.1 nM
CAGUACUGAGGAUAUACAUGAGGAUCACCCAUGUCUUCCAGCUAGGAAACUAGCAAAUGUAGAAGGCAGUACUG [Salish 065 m9] (Eterna round: R97, puzzle: Exclusion 3)	639	71.8	
CAGUACUGAGGAUAUACAUGAGGAUCACCCAUGUGAGAGAUACUAGUGAGGUCGAUUAGUAGAAGGCGGUACUG [Mat X3R4 m5] (Eterna round: R97, puzzle: Exclusion 3)	306	40.8	
CAGUACUGAGGAUAUACAUGAGGAUCACCCAUGUGAUGUAGUGCACGCGUACGUGUACGUAGAAGGCAGUACUG [JL 3.27 m10] (Eterna round: R97, puzzle: Exclusion 3)	49.3	17.1	
CAGUACUGAGGAUAUACAUGAGGAUCACCCAUGUGAUUGAGUGCACGCGUACGUGUACGUAGAAGGCAGUACUG [JL 3.27 m11] (Eterna round: R97, puzzle: Exclusion 3)	194	18.1	
CAGUACUGAGGAUAUACAUGAGGAUCACCCAUGUGCACCAGCUAGGAAACUAGCAAAAGUAGAAGGCAGUACUG [828 mod 2 m9] (Eterna round: R97, puzzle: Exclusion 3)	112	15.5	
